Reference: paper PMC6471214

How the values were obtained:
Biotinylated tubulin [1] = molecular target: Biotinylated tubulin (UniProt P02550); experiment: LSPR (extinction maximum wavelength of gold nanoparticles) + fluorescence microscopy; long MT sample: as the short MT sample, then 10 volumes of 4 µM tubulin (4% Rhodamine-labeled) with 0.5 mM GMPCPP added, 20 more min at 37 °C before paclitaxel
Biotinylated tubulin [2] = molecular target: Biotinylated tubulin (UniProt P02550); experiment: LSPR (extinction maximum wavelength of gold nanoparticles) + fluorescence microscopy; short MT sample: biotinylated tubulin (7% of the tubulin mix, with 4% Rhodamine-labeled tubulin) held on 80 nm biotin-PEG AuNPs through neutravidin; BRB80 pH 6.8, 0.025% Tween 20; GMPCPP, 37 °C for 30 min; stabilised with 10 µM paclitaxel; spectra at room temperature

**Q.** For “Porcine tubulin (α/β-tubulin heterodimer subunits) (from UniProt P02550 1-451; P02554 1-445) (complex)”, which λmax (LSPR extinction maximum wavelength) (Biotinylated tubulin [1]) is on record?
**A.** 553 nm

**Q.** What about the λmax (LSPR extinction maximum wavelength) (Biotinylated tubulin [2]) of the same substance?
**A.** 553 nm
